Assay results published in patent US20230071765A1, “COMPOSITIONS HAVING THIOREDOXIN ACTIVITY AND RELATED METHODS” (ORPRO THERAPEUTICS, INC., priority 2020, published 2023).

What was measured:
[1] = stability analysis, lyophilized vs solution (DTNB and SEC-HPLC); type: physicochemical
Description: Prior work, e.g. WO 2006/090127, teaches compositions for maintenance of thioredoxin in the reduced state. Significant experimentation was required to derive compositions able to keep thioredoxin reduced during storage, and these compositions were complex and required saccharide derivatives and EDTA as excipients. […] ORP-100 and ORP100S proteins were reduced with 100 mM DTT and exchanged over a NAP-5 column into volatile 20 mM ammonium acetate buffer at pH 5.5 to remove residual reductant. Half of the material was frozen at −80° C. then lyophilized while the remainder was kept in solution at either 5° C. or 40° C. for various time points (“PH5.5”). Lyophilized protein was reconstituted back into 20 mM ammonium acetate pH 5.5 immediately prior to evaluation at each time point (“Lyophilized”). Stability was assessed by measuring both free SH groups (DTNB chromogenic assay) and the percent monomers (SEC-HPLC).
For FIG. 3: PH5.5: ORP-100 or ORP100S protein maintained in liquid formulation of 20 mM ammonium acetate, pH 5.5 for 0, 3, 7, 14, 21, 28, 90, or 180 days. Lyophilized: ORP-100 or ORP100S protein stored in the lyophilized form at 5° C. or 40° C. for the 0, 3, 7, 14, 21, 28, 90, or 180 days and assayed following reconstitution in 20 mM ammonium acetate, pH 5.5. Percent free sulfhydryl (reduction state) at 5° C. Second panel: Percent monomer determined by SEC assay at 5° C. Third panel: Percent free sulfhydryl at 40° C. Fourth panel: Percent monomer determined by SEC assay at 40° C.

mucins of 4% HBE mucus = assay: mucin molecular weight by GPC-MALLS; type: biochemical, human; conditions: all three concentrations (0.01, 0.1, 1.0 mM), 1 hr at 37° C.; untreated 180 MDa
Text: Mucus Preparation: Aseptic mucus was harvested from over 100 individual HBE cultures from 20 different CF donors and prepared to four weight-percent (4%) solids, a concentration that typifies chronic obstructive pulmonary disease (COPD) and mild CF (Hill, D. B. et al., 2014, A biophysical basis for mucus solids concentration as a candidate biomarker for airways disease, PloS one 9, e87681; Anderson, W. H. et al., 2015, The relationship of mucus concentration (hydration) to mucus osmotic pressure and transport in chronic bronchitis., Am J Resp Crit Care Med 192: 182-90). […] Creep recovery experiments were performed in which a known stress (between 0.05 and ˜100 Pa) was applied to treated or control mucus for 10 seconds, and the rheological recovery of the fluid was recorded for an additional 50 seconds. […] From the measured parameters the viscosity and elasticity of the fluid were determined as a function of applied stress. […] Mucin molecular weight determination: Molecular weight reduction following test article treatment was determined using a combination of gel-permeation chromatography with multi-angle laser light scattering on a Wyatt Heleos MALLS system. […] Mucin MW was determined by fitting a Berry model to light scattering from 11 different angles using Wyatt Astra software. […]

B1: ORP100S: thioredoxin with monothiol active site, Cys35 and non-active Cys 62, 69 and 73 substituted with serine (SEQ ID NO:29) (protein)
chain: MVKQIESKTAFQEALDAAGDKLVVVDFSATWCGPSKMIKPFFHSLSEKYSNVIFLEVDVDDSQDVASESEVKSMPTFQFFKKGQKVGEFSGANKEKLEATINELV
modifications: synthetic peptide motif
[1]; lyophilized form, six months at 40° C.
  storage stability (free SH, percent monomer): excellent storage stability
[1]; particularly first week of storage in liquid formulation
  monomer stability by SEC-HPLC vs. ORP-100: slightly better monomer stability
Mucins of 4% HBE mucus
  molecular weight of mucins: ca. 150 MDa
